{"source": "the RNAGym collection of RNA variant scans (doi:10.1073/pnas.2313332121)", "parents": {"B1": {"name": "TPR t1 (parent)", "chain": "GACCAAUCUGCCCUCAGAGCUCGAGAACAUCUUCGGAUGCAGAGGAGGCAGGCUUCGGUGGCGCGAUAGCGCCAACGUCCUCAACCUCCAAUGCAUCCCACCACAUGAUGAUGCCUGAAGAGCCUUGGUUUUUUG"}}}
{"variants_of": "B1", "assay": "polymerase ribozyme fitness, log enrichment relative to wild type (log ratio); higher = more active; in vitro selection for triplet polymerase activity", "how_it_was_run": "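Genotype fitness is the logarithm of its enrichment divided by wild-type enrichment, using inverse-variance-weighted averages of replicates. That logarithm is base 2. Enrichment was measured by Illumina sequencing of input and output libraries from one triplicate in vitro selection round, with frozen incubation at −7 °C, on PCR-built, transcribed mutant libraries of each subunit of a heterodimeric triplet polymerase ribozyme, retaining genotypes with ≥10 input reads and ≥1 read per output.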"}
{"variant": "G42A G60U", "polymerase ribozyme fitness (log ratio)": -2.08}
{"variant": "C62U C82U C124A", "polymerase ribozyme fitness (log ratio)": 1.29}
{"variant": "C97U G120C", "polymerase ribozyme fitness (log ratio)": 0.554}
{"variant": "C12U C70A C88U U129C", "polymerase ribozyme fitness (log ratio)": -1.99}
{"variant": "C13G C70U", "polymerase ribozyme fitness (log ratio)": -1.62}
{"variant": "G47A U59C C79G G120A G128A G135U", "polymerase ribozyme fitness (log ratio)": -5.95}
{"variant": "C12A C13G G45C A119U C124A U132A", "polymerase ribozyme fitness (log ratio)": 0.6}
{"variant": "U55C G61C C80A", "polymerase ribozyme fitness (log ratio)": -3.32}
{"variant": "G69U U78C C88U", "polymerase ribozyme fitness (log ratio)": 0.314}
{"variant": "C64U A83U A95G G127C", "polymerase ribozyme fitness (log ratio)": -2.12}
{"variant": "A83C C124G", "polymerase ribozyme fitness (log ratio)": 0.483}
{"variant": "C31G G58U G61A C62G A83U U109A C124U", "polymerase ribozyme fitness (log ratio)": -6.38}
{"variant": "G71C A121G", "polymerase ribozyme fitness (log ratio)": 0.226}
{"variant": "U9G G107U", "polymerase ribozyme fitness (log ratio)": -3.93}
{"variant": "C8A C28G", "polymerase ribozyme fitness (log ratio)": -2.05}
{"variant": "G60A C89U C124A", "polymerase ribozyme fitness (log ratio)": 0.913}
{"variant": "C12A C28G G44A", "polymerase ribozyme fitness (log ratio)": -4.91}
{"variant": "C15A G25C C34G C64U G113A", "polymerase ribozyme fitness (log ratio)": -7.48}
{"variant": "G42C C70G", "polymerase ribozyme fitness (log ratio)": -5.52}
{"variant": "C13A C72U U92C U133A", "polymerase ribozyme fitness (log ratio)": -3.18}
{"variant": "A18G C49U G107A", "polymerase ribozyme fitness (log ratio)": -5.11}
{"variant": "U33A G57U", "polymerase ribozyme fitness (log ratio)": -4.65}
{"variant": "U30A A121C", "polymerase ribozyme fitness (log ratio)": -3.22}
{"variant": "C3A A6C C12A A50G C56G", "polymerase ribozyme fitness (log ratio)": -3.05}
{"variant": "C20U A111C", "polymerase ribozyme fitness (log ratio)": -1.7}
{"variant": "C56G C79U U92A", "polymerase ribozyme fitness (log ratio)": -3.45}
{"variant": "G42U C82A", "polymerase ribozyme fitness (log ratio)": -1.61}
{"variant": "C11G U32A G48U U96A C123A", "polymerase ribozyme fitness (log ratio)": -5.24}
{"variant": "G36A A43G A105U U112C", "polymerase ribozyme fitness (log ratio)": -5.32}
{"variant": "U21A A26U", "polymerase ribozyme fitness (log ratio)": -4.35}
{"variant": "A2C G71U G93A U112A G113C", "polymerase ribozyme fitness (log ratio)": -4.56}
{"variant": "G44C C49U", "polymerase ribozyme fitness (log ratio)": -2.11}
{"variant": "A41C C82U G120A", "polymerase ribozyme fitness (log ratio)": 0.0706}
{"variant": "U9G A16C A68U U109A", "polymerase ribozyme fitness (log ratio)": -6.08}
{"variant": "U7G G17C G44C G77U C94A", "polymerase ribozyme fitness (log ratio)": -6}
{"variant": "G47C C49G U55G C73G C97A A119G", "polymerase ribozyme fitness (log ratio)": -5.16}
{"variant": "C53A U96A U106A G120A", "polymerase ribozyme fitness (log ratio)": 0.0353}
{"variant": "U7A C79G C123U", "polymerase ribozyme fitness (log ratio)": 0.729}
{"variant": "C56A U116A", "polymerase ribozyme fitness (log ratio)": -3.29}
{"variant": "U9A G10A A46U G69U C79U C102G", "polymerase ribozyme fitness (log ratio)": -3.8}
{"variant": "A27C C62U U92G", "polymerase ribozyme fitness (log ratio)": -5.85}
{"variant": "C40G C56G G122A", "polymerase ribozyme fitness (log ratio)": -1.45}
{"variant": "C12A G19U C79G", "polymerase ribozyme fitness (log ratio)": -5.7}
{"variant": "A6G C13U G51U C82U C94A A111G", "polymerase ribozyme fitness (log ratio)": -3.66}
{"variant": "C8A C12U C86G C104A", "polymerase ribozyme fitness (log ratio)": -1.31}
{"variant": "C12A G48C C72U G117U", "polymerase ribozyme fitness (log ratio)": -5.59}
{"variant": "A6G C11U C98A", "polymerase ribozyme fitness (log ratio)": -5.05}
{"variant": "G52U C72A C104U A111G G113A", "polymerase ribozyme fitness (log ratio)": -2.25}
{"variant": "G48A G61U", "polymerase ribozyme fitness (log ratio)": -0.0763}
{"variant": "A50U U54C U106A G117A", "polymerase ribozyme fitness (log ratio)": -1.12}
{"variant": "G113U G122C", "polymerase ribozyme fitness (log ratio)": -2.73}
{"variant": "G71U G135U", "polymerase ribozyme fitness (log ratio)": -1.02}
{"variant": "G69U C114U", "polymerase ribozyme fitness (log ratio)": -0.582}
{"variant": "C15A G69U C101A C123U G127A", "polymerase ribozyme fitness (log ratio)": -4.17}
{"variant": "U7A A74G C85G", "polymerase ribozyme fitness (log ratio)": -1.49}
{"variant": "C15U G57U C72U C82A A111C A118G", "polymerase ribozyme fitness (log ratio)": -1.91}
{"variant": "C13U C72A", "polymerase ribozyme fitness (log ratio)": 0.891}
{"variant": "C40A C72U G77C G110U", "polymerase ribozyme fitness (log ratio)": -3.75}
{"variant": "C8A G36A G57A G61A C72G", "polymerase ribozyme fitness (log ratio)": -1.48}
{"variant": "C72U A103U U125G", "polymerase ribozyme fitness (log ratio)": -6.8}
{"variant": "G23A C62A", "polymerase ribozyme fitness (log ratio)": -7.09}
{"variant": "A46C C79A G120A", "polymerase ribozyme fitness (log ratio)": -1.25}
{"variant": "A5G A18G C79A U81C C89U G93U G120C C124U", "polymerase ribozyme fitness (log ratio)": -6.53}
{"variant": "U59G U112G G113A G120U", "polymerase ribozyme fitness (log ratio)": -4.31}
{"variant": "G52C G61A C72U", "polymerase ribozyme fitness (log ratio)": -0.0205}
{"variant": "C8U G117A", "polymerase ribozyme fitness (log ratio)": 0.294}
{"variant": "A75U G117C", "polymerase ribozyme fitness (log ratio)": -3.99}
{"variant": "C20U C62G C101U G110C", "polymerase ribozyme fitness (log ratio)": -6.8}
{"variant": "G63U U78C C101A", "polymerase ribozyme fitness (log ratio)": -4.07}
{"variant": "A90U C97U U125A G127C U130G", "polymerase ribozyme fitness (log ratio)": -3.85}
{"variant": "C97U U112G U116A U129C", "polymerase ribozyme fitness (log ratio)": -4.3}
{"variant": "G39U G58C G71A G110C", "polymerase ribozyme fitness (log ratio)": -6.06}
{"variant": "C11A A74U", "polymerase ribozyme fitness (log ratio)": -2.52}
{"variant": "G19U C20U", "polymerase ribozyme fitness (log ratio)": -2.46}
{"variant": "C73G C80U", "polymerase ribozyme fitness (log ratio)": -1.77}
{"variant": "C13G A74U", "polymerase ribozyme fitness (log ratio)": -2.54}
{"variant": "G71C C79U", "polymerase ribozyme fitness (log ratio)": 0.303}
{"variant": "C13U C20U G61U C70U U92C", "polymerase ribozyme fitness (log ratio)": -4.03}
{"variant": "A105U C115U", "polymerase ribozyme fitness (log ratio)": -1.94}
{"variant": "C34A G44C G60U A121G", "polymerase ribozyme fitness (log ratio)": -2.34}
{"variant": "C56A G117U", "polymerase ribozyme fitness (log ratio)": -2.01}
{"variant": "G51C G61A C94U C97U", "polymerase ribozyme fitness (log ratio)": -3.52}
{"variant": "G39A A119U", "polymerase ribozyme fitness (log ratio)": -0.287}
